The values below come from paper PMC2033796, “Mechanisms of acquired resistance to the quinazoline thymidylate synthase inhibitor ZD1694 (Tomudex) in one mouse and three human cell lines” (British Journal of Cancer, 1995).

Substrate in the series: Nc1nc2c(c(=O)[nH]1)N1CN(c3ccc(C(=O)N[C@@H](CCC(=O)O)C(=O)O)cc3)CC1CN2
The series is described as follows: purified protein. The class given is biochemical, Homo sapiens. Particulars: co-substrate dUMP; mixed diastereoisomers (6R,S).

B1: TS isolated from human ovarian CH1 cells (CH1 TS) (Homo sapiens) (protein)
chain: PVAGSELPRRPLPPAAQERDAEPRPPHGELQYLGQIQHILRCGVRKDDRTGTGTLSVFGMQARYSLRDEFPLLTTKRVFWKGVLEELLWFIKGSTNAKELSSKGVKIWDANGSRDFLDSLGFSTREEGDLGPVYGFQWRHFGAEYRDMESDYSGQGVDQLQRVIDTIKTNPDDRRIIMCAWNPRDLPLMALPPCHALCQFYVVNSELSCQLYQRSGDMGLGVPFNIASYALLTYMIAHITGLKPGDFIHTLGDAHIYLNHIEPLKIQLQREPRPFPKLRILRKVEKIDDFKAEDFQIEGYNPHPTIKMEMAV
notes: native enzyme partially purified from CH1 ovarian tumour cells (parental line), no tag
For the protein B1, the Km stood at 24 ± 0.8 µM.
